Among the data in PMC5031973 are Kd values, retold here.

pKd: −log10 of the molar value.

The test concerns the target recombinant human β-actin (wild type) (human) (UniProt P60709). Nature of the test: ITC; VP-ITC, 25 °C, G-buffer (5 mM Tris-HCl pH 7.8, 0.1 mM CaCl2, 0.2 mM DTT, 0.2 mM ATP, 0.01% NaN3); 29 injections of 10 μl Tβ4 (100 μM) into actin (10 μM) in the cell. On the technique in general: In ITC the heat of successive injections is recorded.

As a reminder, the pKd is −log10 of the Kd, conventionally taken in molar units. Turning to “thymosin β4 (from UniProt P62328 1-44) (peptide)”, the pKd was 6.30.
